Values of other authors in article PMC12757075.

Molecular target: actin filament barbed end (Oryctolagus cuniculus) (UniProt P68135)

Kd: 9.2 nM
Substance: VASP (from UniProt P50552)
